Measured values: the supplement of paper PMC10126150
± gives the standard deviation of the averaged measurements.

Test system: ATP
Experiment: switch fluorescence ratio, 500 uM ATP over buffer (Cy3 cluster intensity, sum of 5 cycles each) (fold (ratio)); higher = stronger signal-on switching upon ATP binding; sequences stand for … in TCGTCGGCAGCGTCAGATGTGTATAAGAGACAGTTTTTTTTTTTTTTTTTTTTTTTTT…TC
Settings: aptamer strand: ATP DNA aptamer (quencher-CACCTGGGGGAGTATTGCGGAGGAAGG + anchor), 100 nM annealed; ATP concentration: 500 uM
Procedure, shortened: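 For every switch-domain sequence, the fluorescence ratio is the mean of per-cluster values, each being summed target-cycle Cy3 intensity over summed buffer-cycle Cy3 intensity. Clusters outside 100-1000 RFU were excluded. On a modified Illumina MiSeq flow-cell, the Cy3-labelled switching-strand clusters were annealed to 100 nM quencher-labelled ATP aptamer, imaged in selection buffer and then after 15 min with 500 uM ATP at 22 °C. Five such cycles were run, with NaOH stripping and re-annealing between them.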
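Note: ATP exposure 15 min at 22 °C before imaging.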

| Sequence | switch fluorescence ratio |
| --- | --- |
| ACGAGTTCGC | 1.04 ± 0.025 |
| TGAAAATAGT | 0.965 ± 0.029 |
| TGCTAGTTT | 0.98 ± 0.015 |
| AACAAGGGCG | 1.03 ± 0.018 |
| TTTGCTGTTT | 1.01 ± 0.013 |
| TGGCGGGGCG | 1.02 ± 0.038 |
| GGGATTGTGT | 0.963 ± 0.055 |
| ACATAGGGCT | 0.987 ± 0.04 |
| TTTGTGTTCA | 0.98763 ± 0.00075 |
| CTGGACTTAC | 1.34 ± 0.052 |
| AATTTCATTG | 0.9986 ± 0.0035 |
| GGGTTGTATT | 0.991 ± 0.031 |
| AAACTTGTAC | 1.1 ± 0.036 |
| GTAGGGAAAG | 1.009 ± 0.0087 |
| CGTATGGCCT | 0.958 ± 0.01 |
| GGTCATGACG | 0.923 ± 0.046 |
| TAAGCTGCGT | 0.989 ± 0.03 |
| TGGTGCATTT | 1.06 ± 0.14 |
| TTTCACTTGT | 1.034 ± 0.0018 |
| CTCGCAGGAA | 1.75 ± 0.078 |
| GCTGGGGACT | 0.996 ± 0.02 |
| TTTTGGTGAG | 0.972 ± 0.025 |
| TTGCTGTTTG | 1 ± 0.034 |
| AAAGAGGAGA | 1.02 ± 0.023 |
| TGGAAGCGTC | 1.02 ± 0.022 |

| Sequence | switch fluorescence ratio |
| --- | --- |
| CGCGCCTATC | 1.11 ± 0.02 |
| TTTAAGACAC | 1.03 ± 0.022 |
| AGATCTTCTT | 0.987 ± 0.015 |
| GTGCAAAATG | 1.0339 ± 0.00075 |
| ATTTTTTAAC | 1.019 ± 0.0096 |
| GGGGGAGGGC | 1.01 ± 0.031 |
| TTATATTTAT | 1.03 ± 0.069 |
| CGGAAACAAA | 1.01 ± 0.075 |
| TCCGGTACTG | 1.16 ± 0.074 |
| TACTTAGGAT | 1.02 ± 0.044 |
| GGGTAAGAGA | 1.04 ± 0.079 |
| AGGTTTGCGA | 1.02 ± 0.018 |
| GCATTGTGTG | 0.991 ± 0.037 |
| TTGTCCGAGC | 1.06 ± 0.023 |
| CGGTATAAGT | 0.9949 ± 0.0042 |
| TTTACGTGGA | 1.02 ± 0.028 |
| TGTTGGTTTG | 1.08 ± 0.14 |
| CCAGGTATAA | 1.06 ± 0.041 |
| TGAAGATATA | 0.99 ± 0.015 |
| TTTTCATTGG | 0.985 ± 0.026 |
| TTGGAGGTTA | 0.973 ± 0.017 |
| TTTGGTGCTG | 0.983 ± 0.06 |
| CGGTATTATG | 0.993 ± 0.022 |
| CGGGGGGTAG | 0.995 ± 0.035 |
| TTAGGCCCTT | 1.02 ± 0.011 |

| Sequence | switch fluorescence ratio |
| --- | --- |
| ATGTAGCTGG | 1.07 ± 0.033 |
| CTTGTTGAGG | 0.988 ± 0.012 |
| GAATGATGGG | 0.987 ± 0.024 |
| GGGGATGCGC | 1.02 ± 0.011 |
| GCGGCCTTAC | 2.42 ± 0.4 |
| GCGCTTCAA | 0.971 ± 0.014 |
| CCATTTCTTT | 1.01 ± 0.067 |
| TATGTATCGC | 1.13 ± 0.15 |
| TCCGGCTGGT | 0.976 ± 0.024 |
| TATGTGGGCT | 0.987 ± 0.021 |
| GATGATGTAT | 1.01 ± 0.033 |
| TCATCGGTTC | 1 ± 0.052 |
| GGTGAAGCTG | 1.05 ± 0.14 |
| GTGGAGAAAT | 1.04 ± 0.047 |
| AGACTATGAG | 1.03 ± 0.034 |
| AAAGCAGGGA | 1.04 ± 0.043 |
| AGTTCCGTTT | 0.994 ± 0.022 |
| AAGGCCTTCG | 1.12 ± 0.021 |
| CATCATTATA | 0.9866 ± 0.0079 |
| GGTGTTGGG | 1.01 ± 0.019 |
| TTGGTTGTAA | 1.03 ± 0.059 |
| AAAAACTCTG | 1.01 ± 0.079 |
| GTTTTTTAAC | 1.01 ± 0.04 |
| TAAGCTTACA | 1.04 ± 0.032 |
| GGCTATCAAA | 1.01 ± 0.018 |

| Sequence | switch fluorescence ratio |
| --- | --- |
| GAGGTATTTT | 1.34 ± 0.65 |
| ATTGCTGGGG | 1.01 ± 0.056 |
| TCGTGCTTGG | 1 ± 0.029 |
| CAATTGCGCT | 1.01 ± 0.016 |
| CCGCAGGGTA | 1.259 ± 0.0092 |
| TAATAATCTA | 1.01 ± 0.027 |
| CCATGGGTGG | 1.01 ± 0.011 |
| GGTAGGAGAG | 0.987 ± 0.0057 |
| TGTTGGTAAA | 1.02 ± 0.024 |
| CAACAGGGGG | 1.06 ± 0.056 |
| GATTGTTAGA | 0.9891 ± 0.0081 |
| ATAAAATAAT | 0.977 ± 0.048 |
| CAAAGCACCG | 1.031 ± 0.0063 |
| CCGAAACTTG | 1.07 ± 0.038 |
| TTTGGGGCT | 0.957 ± 0.039 |
| TCACGTGGTA | 1.02 ± 0.021 |
| GGTGTAAGAG | 0.987 ± 0.031 |
| ACTGCATCTA | 1.09 ± 0.033 |
| TGAAATGGCT | 0.997 ± 0.034 |
| GGGGATCAGC | 0.9912 ± 0.0036 |
| AAACGATGTG | 0.985 ± 0.023 |
| CGAGTAGAGG | 1.02 ± 0.026 |
| TTAGAAGTAT | 1.03 ± 0.046 |
| TAGGATAGGG | 0.9972 ± 0.0021 |
| GATTTGTTTT | 0.994 ± 0.013 |
